B1: Peptide LG56 (peptide)
peptide: HIQNWSYWLNQDMMNQQVWKS
notes: peptide positive control in the LAG3/FGL1 assay
B2: Peptide LG11 (peptide)
peptide: SAPWEPLHWPEDWWQGTGEW
notes: positive peptide control in the LAG3/MHC-II assay

target: T1, human LAG3 (Human LAG3/FGL1 TR-FRET Binding Assay, BPS Bioscience) (human, UniProt P18627 23-450, limits assumed); assay: TR-FRET competition, inhibition of LAG3:FGL1 binding
T1 construct: Kit reagent (BPS Bioscience); construct not described
T1 sequence (looked up): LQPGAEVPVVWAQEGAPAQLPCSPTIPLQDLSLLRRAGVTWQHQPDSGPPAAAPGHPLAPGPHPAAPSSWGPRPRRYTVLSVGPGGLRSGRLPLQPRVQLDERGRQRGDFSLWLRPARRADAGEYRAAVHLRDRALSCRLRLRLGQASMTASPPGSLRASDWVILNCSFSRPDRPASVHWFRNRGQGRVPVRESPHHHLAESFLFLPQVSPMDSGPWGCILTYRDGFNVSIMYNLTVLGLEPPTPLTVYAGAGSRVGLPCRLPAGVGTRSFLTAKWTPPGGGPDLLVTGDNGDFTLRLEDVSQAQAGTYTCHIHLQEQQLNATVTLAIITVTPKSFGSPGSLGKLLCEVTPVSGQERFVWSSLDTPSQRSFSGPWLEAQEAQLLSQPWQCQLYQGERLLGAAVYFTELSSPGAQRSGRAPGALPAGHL
Description: Reaction mixes were incubated 1 hr at RT before development. After development, plate was read in a Tecan M1000 TR-FRET instrument.

| Binder | IC50 [µM] |
| --- | --- |
| VFRMDWDEKEVRLYADDILL (20-mer peptide) [peptide 146] | 7.2 |
| ITMWGYDTDEDDNLVIYLTD (20-mer peptide) [peptide 6] | 2.6 |
| TVDADGDLYFDMEEGVLVFM (20-mer peptide) [peptide 41] | 9.2 |
| RTDRYTLSYIWTSDEWMLFD (20-mer peptide) [peptide 115] | 9.1 |
| B1 | 14 |
| EDKAPWWQLDMEFEFRLDRV (20-mer peptide) [peptide 68] | ~21 |
| AEFDHFDVGQTLDIASWDSY (20-mer peptide) [peptide 69] | 3.3 |
| EHNREQVLEVMYSFQVNDYF (20-mer peptide) [peptide 154] | 7.2 |

target: T2, Tag1-LAG3 protein (UniProt P18627 23-450, limits assumed); assay: HTRF (TR-FRET) competition, inhibition of LAG3:MHC-II binding
T2 construct: Kit reagent (Cisbio); Tag1 is not identified
T2 sequence (looked up): T1 sequence (looked up)
Description: Anti-Tag1-Tb and anti-Tag2-XL665 antibodies were added and incubated for one hour, then simultaneous measurement of both […] cryptate and 665 nm acceptor emissions were read.

| Binder | IC50 [µM] |
| --- | --- |
| VFRMDWDEKEVRLYADDILL (20-mer peptide) [peptide 146] | 0.199 |
| RVPAPVKEQVQKQYPNAGAI (also called Low Activity Peptide) [Peptide 93] | 63 |
| B2 | 18.4 |
| RERGGDDFAQDDYYVTIFYR (20-mer peptide) [peptide 11] | 0.353 |
| RTDRYTLSYIWTSDEWMLFD (20-mer peptide) [peptide 115] | 0.154 |
| GGVAIFLALFGGMVSSWEWD (20-mer peptide) [peptide 141] | 6.69 |
| QGSTSGWGFGAMYELTYDVY (20-mer peptide) [peptide 16] | 0.22 |
| EDKAPWWQLDMEFEFRLDRV (20-mer peptide) [peptide 68] | 2.94 |
| SLPYSNIYIELDSGYWNSES (20-mer peptide) [peptide 155] | 0.13 |
| LAGHYHYLTAGSQDIYEYND (20-mer peptide) [peptide 62] | 0.308 |

From US20220033441A1 (LEIDOS, published 2022)
